Laboratory results published in patent US12099068B2, “Biomarkers for graft-versus-host disease” (Incyte Corporation, priority 2018, dated 2024).

B1: TLT-2 (protein, UniProt Q5T2D2 19-321, looked up)
Trem-like transcript 2 protein: GPSADSVYTKVRLLEGETLSVQCSYKGYKNRVEGKVWCKIRKKKCEPGFARVWVKGPRYLLQDDAQAKVVNITMVALKLQDSGRYWCMRNTSGILYPLMGFQLDVSPAPQTERNIPFTHLDNILKSGTVTTGQAPTSGPDAPFTTGVMVFTPGLITLPRLLASTRPASKTGYSFTATSTTSQGPRRTMGSQTVTASPSNARDSSAGPESISTKSGDLSTRSPTTGLCLTSRSLLNRLPSMPSIRHQDVYSTVLGVVLTLLVLMLIMVYGFWKKRHMASYSMCSDPSTRDPPGRPEPYVEVYLI
B2: PRDX5 (protein, UniProt P30044 53-214, looked up)
Peroxiredoxin-5, mitochondrial: MAPIKVGDAIPAVEVFEGEPGNKVNLAELFKGKKGVLFGVPGAFTPGCSKTHLPGFVEQAEALKAKGVQVVACLSVNDAFVTGEWGRAHKAEGKVRLLADPTGAFGKETDLLLDDSLVSIFGNRRLKRFSMVVQDGIVKALNVEPDGTGLTCSLAPNIISQL
B3: DKKL1 (protein, UniProt Q9UK85 31-242, looked up)
Dickkopf-like protein 1: APIHDADAQESSLGLTGLQSLLQGFSRLFLKGNLLRGIDSLFSAPMDFRGLPGNYHKEENQEHQLGNNTLSSHLQIDKMTDNKTGEVLISENVVASIQPAEGSFEGDLKVPRMEEKEALVPIQKATDSFHTELHPRVAFWIIKLPRRRSHQDALEGGHWLSEKRHRLQAIRDGLRKGTHKDVLEEGTESSSHSRLSPRKTHLLYILRPSRQL
B4: GRAP2 (protein, UniProt O75791 1-330, looked up)
GRB2-related adapter protein 2: MEAVAKFDFTASGEDELSFHTGDVLKILSNQEEWFKAELGSQEGYVPKNFIDIQFPKWFHEGLSRHQAENLLMGKEVGFFIIRASQSSPGDFSISVRHEDDVQHFKVMRDNKGNYFLWTEKFPSLNKLVDYYRTNSISRQKQIFLRDRTREDQGHRGNSLDRRSQGGPHLSGAVGEEIRPSMNRKLSDHPPTLPLQQHQHQPQPPQYAPAPQQLQQPPQQRYLQHHHFHQERRGGSLDINDGHCGTGLGSEMNAALMHRRHTDPVQLQAAGRVRWARALYDFEALEDDELGFHSGEVVEVLDSSNPSWWTGRLHNKLGLFPANYVAPMTR
B5: ST1A1 (protein, UniProt P50225 1-295, looked up)
Sulfotransferase 1A1: MELIQDTSRPPLEYVKGVPLIKYFAEALGPLQSFQARPDDLLISTYPKSGTTWVSQILDMIYQGGDLEKCHRAPIFMRVPFLEFKAPGIPSGMETLKDTPAPRLLKTHLPLALLPQTLLDQKVKVVYVARNAKDVAVSYYHFYHMAKVHPEPGTWDSFLEKFMVGEVSYGSWYQHVQEWWELSRTHPVLYLFYEDMKENPKREIQKILEFVGRSLPEETVDFVVQHTSFKEMKKNPMTNYTTVPQEFMDHSISPFMRKGMAGDWKTTFTVAQNERFDADYAEKMAGCSLSFRSEL
B6: IL2-RA (protein, UniProt P01589 22-272, looked up)
Interleukin-2 receptor …: ELCDDDPPEIPHATFKAMAYKEGTMLNCECKRGFRRIKSGSLYMLCTGNSSHSSWDNQCQCTSSATRNTTKQVTPQPEEQKERKTTEMQSPMQPVDQASLPGHCREPPPWENEATERIYHFVVGQMVYYQCVQGYRALHRGPAESVCKMTHGKTRWTQPQLICTGEMETSQFPGEEKPQASPEGRPESETSCLVTTTDFQIQTEMAATMETSIFTTEYQVAVAGCVFLLISVLLLSGLTWQRRQRKSRRTI
B7: Ep-CAM (protein, UniProt P16422 24-314, looked up)
Epithelial cell adhesion …: QEECVCENYKLAVNCFVNNNRQCQCTSVGAQNTVICSKLAAKCLVMKAEMNGSKLGRRAKPEGALQNNDGLYDPDCDESGLFKAKQCNGTSMCWCVNTAGVRRTDKDTEITCSERVRTYWIIIELKHKAREKPYDSKSLRTALQKEITTRYQLDPKFITSILYENNVITIDLVQNSSQKTQNDVDIADVAYYFEKDVKGESLFHSKKMDLTVNGEQLDLDPGQTLIYYVDEKAPEFSMQGLKAGVIAVIVVVVIAVVAGIVVLVISRKKRMAKYEKAEIKEMGEMHRELNA
B8: hK11 (protein, UniProt Q9UBX7 54-282, looked up)
Kallikrein-11: IIKGFECKPHSQPWQAALFEKTRLLCGATLIAPRWLLTAAHCLKPRYIVHLGQHNLQKEEGCEQTRTATESFPHPGFNNSLPNKDHRNDIMLVKMASPVSITWAVRPLTLSSRCVTAGTSCLISGWGSTSSPQLRLPHTLRCANITIIEHQKCENAYPGNITDTMVCASVQEGGKDSCQGDSGGPLVCNQSLQGIISWGQDPCAITRKPGVYTKVCKYVDWIQETMKNN
B9: FOXO1 (protein, UniProt Q12778 1-655, looked up)
Forkhead box protein O1: MAEAPQVVEIDPDFEPLPRPRSCTWPLPRPEFSQSNSATSSPAPSGSAAANPDAAAGLPSASAAAVSADFMSNLSLLEESEDFPQAPGSVAAAVAAAAAAAATGGLCGDFQGPEAGCLHPAPPQPPPPGPLSQHPPVPPAAAGPLAGQPRKSSSSRRNAWGNLSYADLITKAIESSAEKRLTLSQIYEWMVKSVPYFKDKGDSNSSAGWKNSIRHNLSLHSKFIRVQNEGTGKSSWWMLNPEGGKSGKSPRRRAASMDNNSKFAKSRSRAAKKKASLQSGQEGAGDSPGSQFSKWPASPGSHSNDDFDNWSTFRPRTSSNASTISGRLSPIMTEQDDLGEGDVHSMVYPPSAAKMASTLPSLSEISNPENMENLLDNLNLLSSPTSLTVSTQSSPGTMMQQTPCYSFAPPNTSLNSPSPNYQKYTYGQSSMSPLPQMPIQTLQDNKSSYGGMSQYNCAPGLLKELLTSDSPPHNDIMTPVDPGVAQPNSRVLGQNVMMGPNSVMSTYGSQASHNKMMNPSSHTHPGHAQQTSAVNGRPLPHTVSTMPHTSGMNRLTQVKTPVQVPLPHPMQMSALGGYSSVSSCNGYGRMGLLHQEKLPSDLDGMFIERLDCDMESIIRNDLMDGDTLDFNFDNVLPNQSFPHSVKTTTHSWVSG
B10: SCGB3A1 (protein, UniProt Q96QR1 21-104, looked up)
Secretoglobin family 3A …: FLVGSAKPVAQPVAALESAAEAGAGTLANPLGTLNPLKLLLSSLGIPVNHLIEGSQKCVAELGPQAVGAVKALKALLGALTVFG
B11: NBN (protein, UniProt O60934 1-754, looked up)
Nibrin: MWKLLPAAGPAGGEPYRLLTGVEYVVGRKNCAILIENDQSISRNHAVLTANFSVTNLSQTDEIPVLTLKDNSKYGTFVNEEKMQNGFSRTLKSGDGITFGVFGSKFRIEYEPLVACSSCLDVSGKTALNQAILQLGGFTVNNWTEECTHLVMVSVKVTIKTICALICGRPIVKPEYFTEFLKAVESKKQPPQIESFYPPLDEPSIGSKNVDLSGRQERKQIFKGKTFIFLNAKQHKKLSSAVVFGGGEARLITEENEEEHNFFLAPGTCVVDTGITNSQTLIPDCQKKWIQSIMDMLQRQGLRPIPEAEIGLAVIFMTTKNYCDPQGHPSTGLKTTTPGPSLSQGVSVDEKLMPSAPVNTTTYVADTESEQADTWDLSERPKEIKVSKMEQKFRMLSQDAPTVKESCKTSSNNNSMVSNTLAKMRIPNYQLSPTKLPSINKSKDRASQQQQTNSIRNYFQPSTKKRERDEENQEMSSCKSARIETSCSLLEQTQPATPSLWKNKEQHLSENEPVDTNSDNNLFTDTDLKSIVKNSASKSHAAEKLRSNKKREMDDVAIEDEVLEQLFKDTKPELEIDVKVQKQEEDVNVRKRPRMDIETNDTFSDEAVPESSKISQENEIGKKRELKEDSLWSAKEISNNDKLQDDSEMLPKKLLLTEFRSLVIKNSTSRNPSGINDDYGQLKNFKKFKKVTYPGAGKLPHIIGGSDLIAHHARKNTELEEWLRQEMEVQNQHAKEESLADDLFRYNPYLKRRR
B12: NEP (protein, UniProt P08473 2-750, looked up)
Neprilysin: GKSESQMDITDINTPKPKKKQRWTPLEISLSVLVLLLTIIAVTMIALYATYDDGICKSSDCIKSAARLIQNMDATTEPCTDFFKYACGGWLKRNVIPETSSRYGNFDILRDELEVVLKDVLQEPKTEDIVAVQKAKALYRSCINESAIDSRGGEPLLKLLPDIYGWPVATENWEQKYGASWTAEKAIAQLNSKYGKKVLINLFVGTDDKNSVNHVIHIDQPRLGLPSRDYYECTGIYKEACTAYVDFMISVARLIRQEERLPIDENQLALEMNKVMELEKEIANATAKPEDRNDPMLLYNKMTLAQIQNNFSLEINGKPFSWLNFTNEIMSTVNISITNEEDVVVYAPEYLTKLKPILTKYSARDLQNLMSWRFIMDLVSSLSRTYKESRNAFRKALYGTTSETATWRRCANYVNGNMENAVGRLYVEAAFAGESKHVVEDLIAQIREVFIQTLDDLTWMDAETKKRAEEKALAIKERIGYPDDIVSNDNKLNNEYLELNYKEDEYFENIIQNLKFSQSKQLKKLREKVDKDEWISGAAVVNAFYSSGRNQIVFPAGILQPPFFSAQQSNSLNYGGIGMVIGHEITHGFDDNGRNFNKDGDLVDWWTQQSASNFKEQSQCMVYQYGNFSWDLAGGQHLNGINTLGENIADNGGLGQAYRAYQNYIKKNGEEKLLPGLDLNHKQLFFLNFAQVWCGTYRPEYAVNSIKTDVHSPGNFRIIGTLQNSAEFSEAFHCRKNSYMNPEKKCRVW
B13: CPA2 (protein, UniProt P48052 115-419, looked up)
Carboxypeptidase A2: SGNFNFGAYHTLEEISQEMDNLVAEHPGLVSKVNIGSSFENRPMNVLKFSTGGDKPAIWLDAGIHAREWVTQATALWTANKIVSDYGKDPSITSILDALDIFLLPVTNPDGYVFSQTKNRMWRKTRSKVSGSLCVGVDPNRNWDAGFGGPGASSNPCSDSYHGPSANSEVEVKSIVDFIKSHGKVKAFITLHSYSQLLMFPYGYKCTKLDDFDELSEVAQKAAQSLRSLHGTKYKVGPICSVIYQASGGSIDWSYDYGIKYSFAFELRDTGRYGFLLPARQILPTAEETWLGLKAIMEHVRDHPY
B14: CD93 (protein, UniProt Q9NPY3 22-652, looked up)
Complement component C1q …: TGADTEAVVCVGTACYTAHSGKLSAAEAQNHCNQNGGNLATVKSKEEAQHVQRVLAQLLRREAALTARMSKFWIGLQREKGKCLDPSLPLKGFSWVGGGEDTPYSNWHKELRNSCISKRCVSLLLDLSQPLLPSRLPKWSEGPCGSPGSPGSNIEGFVCKFSFKGMCRPLALGGPGQVTYTTPFQTTSSSLEAVPFASAANVACGEGDKDETQSHYFLCKEKAPDVFDWGSSGPLCVSPKYGCNFNNGGCHQDCFEGGDGSFLCGCRPGFRLLDDLVTCASRNPCSSSPCRGGATCVLGPHGKNYTCRCPQGYQLDSSQLDCVDVDECQDSPCAQECVNTPGGFRCECWVGYEPGGPGEGACQDVDECALGRSPCAQGCTNTDGSFHCSCEEGYVLAGEDGTQCQDVDECVGPGGPLCDSLCFNTQGSFHCGCLPGWVLAPNGVSCTMGPVSLGPPSGPPDEEDKGEKEGSTVPRAATASPTRGPEGTPKATPTTSRPSLSSDAPITSAPLKMLAPSGSPGVWREPSIHHATAASGPQEPAGGDSSVATQNNDGTDGQKLLLFYILGTVVAILLLLALALGLLVYRKRRAKREEKKEKKPQNAADSYSWVPERAESRAMENQYSPTPGTDC

tested on: plasma proteins; experiment: Plasma proteins modulated between baseline and day 28 in responders (CR, VGPR, PR; n = 19), Example 6 (Table 13); format: in vivo, human; conditions: plasma protein (OLINK NPX); responders (CR, VGPR, PR; n = 19); itacitinib 200 mg or 300 mg QD with corticosteroids; day 28 vs baseline
How it was run: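 Plasma at baseline/screening and day 28 profiled for >1000 proteins by OLINK proximity extension assay, reported as NPX (log2). Steroid-naive and steroid-refractory patients pooled. Paired and unpaired t tests, ANOVA and Pearson correlation applied; significance at P<0.05.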

First: B1
Second: B2
The “Fold Change, Decreased Expression from Baseline to Day 28” value (“Fold Change, Decreased Expression” for short) of the first is higher: −1.8372 for the first, −2.0131 for the second.

Compared with B4, B5 is lower in “Fold Change, Decreased Expression” value: −1.6468 for the first, −1.9523 for the second.

Compared with B6, B9 is higher in “Fold Change, Decreased Expression” value: −2.2452 for the first, −1.3557 for the second.

First: B11
Second: B14
The “Fold Change, Decreased Expression” value of the first is lower: −1.5879 for the first, −1.3029 for the second.

Going from B3 to B7, the “Fold Change, Increased Expression from Baseline to Day 28” value (“Fold Change, Increased Expression” for short) rises from 1.1495 to 1.403.

Going from B8 to B10, the “Fold Change, Increased Expression” value rises from 1.2975 to 1.5691.

First: B12
Second: B13
The “Fold Change, Increased Expression” value of the first is higher: 1.8376 for the first, 1.7185 for the second.
